Measurements taken from IntAct's records for PubMed 29611543.

Target: T1, trem2_human TREM2 (UniProt Q9NZC2)
T1 sequence: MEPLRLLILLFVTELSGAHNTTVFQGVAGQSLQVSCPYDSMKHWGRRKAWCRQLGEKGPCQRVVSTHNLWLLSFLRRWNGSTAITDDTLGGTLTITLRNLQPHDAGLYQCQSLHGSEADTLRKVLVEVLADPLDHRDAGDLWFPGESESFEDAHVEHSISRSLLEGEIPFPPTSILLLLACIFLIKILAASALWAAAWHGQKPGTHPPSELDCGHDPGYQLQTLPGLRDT

- effect of a mutation on the interaction: with no effect
Substance: Presenilin-1 (Homo sapiens) (from UniProt P49768) D385A
